# Source: paper PMC4376295 (Nature communications, 2014)
# Substitutions are numbered along the chain they refer to. Names may count otherwise.
# T1: HerA harbouring both M51L and M82L mutations (Sulfolobus solfataricus, UniProt Q97WG8 1-500, M51L | M82L)
# T1 sequence (looked up): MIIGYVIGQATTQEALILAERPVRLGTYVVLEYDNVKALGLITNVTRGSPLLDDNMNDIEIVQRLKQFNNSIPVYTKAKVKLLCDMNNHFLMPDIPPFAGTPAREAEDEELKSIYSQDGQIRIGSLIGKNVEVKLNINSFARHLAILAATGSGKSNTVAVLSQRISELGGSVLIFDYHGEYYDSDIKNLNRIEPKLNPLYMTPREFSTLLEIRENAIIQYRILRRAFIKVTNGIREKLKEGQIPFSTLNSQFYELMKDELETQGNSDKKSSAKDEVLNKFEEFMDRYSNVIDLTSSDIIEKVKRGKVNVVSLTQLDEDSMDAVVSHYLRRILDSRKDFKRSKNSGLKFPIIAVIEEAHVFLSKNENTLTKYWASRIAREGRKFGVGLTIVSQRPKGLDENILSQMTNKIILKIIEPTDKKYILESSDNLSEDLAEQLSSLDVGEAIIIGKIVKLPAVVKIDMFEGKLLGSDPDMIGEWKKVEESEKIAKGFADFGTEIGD
# T2: native HerA (S. solfataricus, Sso2251) (Sulfolobus solfataricus, UniProt Q97WG8 1-500)
# T2 sequence (looked up): T1 sequence (looked up) with L51M, L82M
# B1: NurA D58A (nuclease inactivated) (enzyme, Sulfolobus solfataricus, UniProt Q97WH1 1-339, looked up)
# chain: MIRKIYDKLVESHNEIKNQIYNIANYLKQEIQDKVNEYWNEYVINHEQSETCKFVAIAGGSFGRPMRIGIVYAVGAESVIGDNKGVKTLSEDGQIGIFKPGNDAQERISLLMEALELSLALRDGSKGDYILMDGSLSKKIGNKVDIQQFSDEELKLIRNVDLNGIISIKDERKMRDLLMLLNQFLVSKIIEEYDGNVLWISKVSRGRDLFGTDYPDITVLELFTEKRGFSKLIIKNIDIEKISEIPEIEVLRKMEYTTFYTRLDNGKRVIRVDIVGRVDEKIVKEIMDRLSGVSIKGYPFPLLKAHMDVRFSAMDREKIIKLVGSKLHKDIEWWPSQFY
# B2: native NurA (S. solfataricus) (enzyme, Sulfolobus solfataricus, UniProt Q97WH1 1-339, looked up)
# chain: B1 chain with A58D
# Columns and labels:
# SEC-coupled SAXS = target: the molecule itself; assay: SEC-coupled SAXS
# [1] = target: T1, HerA harbouring both M51L and M82L …; assay: SEC-coupled SAXS
# [2] = target: T2, native HerA (S. solfataricus, Sso2251); assay: SEC
Binder,binding result (SEC-coupled SAXS),binding result [1],binding result [2]
B1,binds,binds,
B2,,,binds
